Target: T1, LmrR (Lactococcus lactis, UniProt A2RI36 1-116)
T1 sequence: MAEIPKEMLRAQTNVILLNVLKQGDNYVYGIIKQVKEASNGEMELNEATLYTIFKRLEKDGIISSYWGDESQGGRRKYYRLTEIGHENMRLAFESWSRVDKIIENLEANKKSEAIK
Experiment: ITC; apo; 2 LmrR dimers per DNA; 10 mM NaPi pH 6.8, 100 mM NaCl, 25 C (ITC; same buffer for NMR); 5% DMSO in riboflavin titrations
Details: protein: recombinant; tags: C-terminal His6; chain copies: 4

B1: lmrCD operator 33 bp (dsDNA)
DNA 1: CAATTTAATGTAAAGTAGTTTACATTATTTAAC
DNA 2: GTTAAATAATGTAAACTACTTTACATTAAATTG
How did the Kd turn out when B1 was run?
The Kd was 64 ± 22 nM.

From paper PMC5428041, “Dynamic equilibrium on DNA defines transcriptional regulation of a multidrug binding transcriptional repressor, LmrR”
